The record followed here is US20260159603A1 (BEAM THERAPEUTICS, published 2026).

Where a chain is given by its changes, count along the chain named.

One test addresses T1, huCD5-BTN (human, UniProt P06127 25-372, limits assumed, biotinylated (BTN)).
T1 construct: Loaded onto streptavidin biosensors; also called human CD5
T1 sequence (looked up): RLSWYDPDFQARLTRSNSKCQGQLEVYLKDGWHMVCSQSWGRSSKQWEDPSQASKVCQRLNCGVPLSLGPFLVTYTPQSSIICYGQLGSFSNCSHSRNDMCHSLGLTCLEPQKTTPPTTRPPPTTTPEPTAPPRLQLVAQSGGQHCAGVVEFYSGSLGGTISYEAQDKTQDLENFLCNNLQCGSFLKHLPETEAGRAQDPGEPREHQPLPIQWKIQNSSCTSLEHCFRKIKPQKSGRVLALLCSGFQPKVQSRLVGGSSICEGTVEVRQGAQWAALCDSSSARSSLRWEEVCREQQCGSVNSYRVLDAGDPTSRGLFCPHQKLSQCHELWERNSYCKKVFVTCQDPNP
Nature of the test: BLI in tandem, huCD5-BTN saturated with UCHT2 first; competitor UCHT2.

The target in test [1] is T2, biotinylated human CD5-HIS (human, UniProt P06127 25-372, biotinylated).
T2 construct: Loaded onto streptavidin Octet pins; also called huCD5; SA-human CD5; not shown: HIS tag
T2 sequence (looked up): T1 sequence (looked up)
Nature of the test: BLI; KD on human CD5 divided by KD on cynomolgus CD5. (Biolayer interferometry detects binding as a change in optical thickness at a sensor tip.)

For test [2], the target named is T3, human CD5 on transfected HEK293T cells (human, UniProt P06127 25-495).
T3 construct: whole, on cells; also called huCD5; Human CD5 Cells
T3 sequence (looked up): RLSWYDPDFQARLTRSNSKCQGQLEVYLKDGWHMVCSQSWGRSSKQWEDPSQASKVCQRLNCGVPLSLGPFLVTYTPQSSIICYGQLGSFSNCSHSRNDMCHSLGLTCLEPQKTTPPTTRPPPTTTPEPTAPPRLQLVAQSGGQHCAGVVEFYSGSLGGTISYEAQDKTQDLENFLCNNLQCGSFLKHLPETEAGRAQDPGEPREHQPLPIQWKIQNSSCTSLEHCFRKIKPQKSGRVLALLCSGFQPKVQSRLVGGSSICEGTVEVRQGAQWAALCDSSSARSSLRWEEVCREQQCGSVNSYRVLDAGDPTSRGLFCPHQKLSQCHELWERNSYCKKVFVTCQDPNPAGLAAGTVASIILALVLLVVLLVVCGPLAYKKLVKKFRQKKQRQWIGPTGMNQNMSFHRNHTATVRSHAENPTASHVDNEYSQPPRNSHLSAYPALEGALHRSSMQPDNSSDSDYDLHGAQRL
Nature of the test: flow cytometry, periplasmic extract on transfected HEK293T cells. (In general: Flow cytometry measures light scatter and fluorescence of single cells or particles in a stream.)

For test [3], the target named is T4, cynomolgus CD5 on transfected HEK293T cells (cynomolgus (Table 8B); rhesus macaque …).
T4 construct: whole, on cells; also called Cynomolgus CD5 Cells; rhesus macaque (Macaca mulatta) CD5
Described as above.

The target of test [4] is T2, biotinylated human CD5-HIS. Nature of the test: BLI (Octet), biotinylated CD5-HIS on streptavidin pins, periplasmic extract, off-rate.
Test [5] deals with T5, biotinylated cynomolgus CD5-HIS (cynomolgus).
T5 construct: Loaded onto streptavidin Octet pins; also called CynoCD5; SA-Cyno CD5
The description is as above.

For test [6], the target named is T2, biotinylated human CD5-HIS. Nature of the test: BLI (Octet), biotinylated CD5-HIS on streptavidin pins.
Test [7] concerns the target T5, biotinylated cynomolgus CD5-HIS. The test is described as above.

B1: ABTx322 VHH-Fc (Fc fusion)
chain: QLQLVESGGGLVQPGGSLRLSCAASGSDFLVDATTWFRQAPGNQREFVAIMDIGGVTEYADSVKGRFTISRDHTKNTVYLQMNSLKVEDTAVYYCNTRGLWGQGTLVTVSS
notes: VHH as Fc fusion protein; order of the parts and the Fc are not described; also called anti-CD5 VHH-Fc; not shown: Fc (detected with anti-Human Fc)
Regarding B1, the response in the test with huCD5-BTN is -0.137 Response Units.

B2: ABTx327 VHH-Fc (Fc fusion)
chain: QVQLVESGGGLVQPGGSLRLSCVASGGTFSTYGMGWFRQAPGKEREFVAVITGSGVGTQYADSVKDRFTISRENAKNTVYLQMNTLKLEDTAVYYCVSGHRPGWAVIRADAYEYWGQGTQVTVSS
notes: as for B1
The molecule B2 came in with a response with huCD5-BTN of 0.025 Response Units.

B3: ABTx319 VHH-Fc (Fc fusion)
chain: QVQLVESGGGLVQPGGSLRLSCAASGFTFSMYSMSWVRQAPGKRLEWVSSISTGARDTAYADSVKGRFTISRDNADNTLYLHMNNLKPEDTAVYYCANGDLRYGPDGYDYRGQGTQVTVSS
notes: as for B1
B3 returned a response with huCD5-BTN of 1.17 Response Units.

B4: ABTx320 VHH-Fc (Fc fusion)
chain: QVQLVESGGGLVQAGGSLRLSCAASGPAFSSSGMGWFRQAPGKAREFVASMDWTGGSTYYGDSVKGRFTVSRDNAKMTVHLQMNSLRPEDTAVYYCARGTSGVAAVNLRGFFSWGPGTQVTVSS
notes: as for B1
As for B4, the response with huCD5-BTN amounted to 0.325 Response Units.

B5: ABTx326 VHH-Fc (Fc fusion)
chain: QVQLVESGGGLVQPGGSLRLSCAASGRTFINYAAGWFRQAPGKEREFVARISRSGGRTDYADSVKGRFTISRDNAKSTVYLQMNSLRPEDTAVYYCAEATVWEFTDGADQYDYWGQGTQVTVSS
notes: as for B1
In the test with huCD5-BTN, B5 yielded a response of 0.0571 Response Units.

B6: ABTx329 VHH-Fc (Fc fusion)
chain: QLQLVESGGGLVQPGESLRLSCAASGFSFSRVGMNWYRQAPGKERELVASISSDGSRTNYAHFVKGRFTISRDNVKNMVYLQMNSLKLEDTAVYYCNVPGNSWGQGTQVTVSS
notes: as for B1
As for B6, in the test with huCD5-BTN, the response is 0.24 Response Units.

B7: ABTx324 VHH-Fc (Fc fusion)
chain: QVQLVESGGGLVQPGGSVRLSCATSGSIFSTNVMGWYRQAPGKEREFVALIRGGGSTHYADSVKGRFIISRENAKTTVYLQMNGLKPEDTAVYYCVIWLGSPGAMSDYWGQGTQVTVSS
notes: as for B1
B7 came in with a response with huCD5-BTN of 0.663 Response Units.

B8: ABTx315 (VHH)
VHH: QVQLVESGGGLVQAGGSLRLSCAASGRTFGTYTMGWFRQAPGREREFVAAISWSAGRTYYADSMKGRFTISRDNAKNTVYLQMNSLKPEDTAVYYCAADPWTSDSDYDRLTMYDYWGQGTQVTVSS
notes: VHH in periplasmic extract of the phage display clone; also called clone 502; not shown: c-myc tag of the phagemid construct (detected with anti-c-myc 9E10)
In general, koff refers to the first-order rate constant of dissociation. The low end stands for slow dissociation, the high end for fast dissociation. What is called Kd is the free concentration of one partner at which half of the binding sites on the other are occupied at equilibrium, for simple one-to-one binding. The low end stands for a tighter complex, the high end for a looser complex. The term kon denotes the rate constant with which the complex forms. B8: the “Hu/Cyno KD” value in test [1] is 1.8. The “percent of cells showing binding” value came out at 86.4% in test [2] and 79.1% in test [3]. Further, the koff was determined as 0.000566 s⁻¹ in test [4], 0.000345 s⁻¹ in test [5], 6.3e-05 s⁻¹ in test [6] and 5.8e-05 s⁻¹ in test [7]. Besides, the results for the Kd in test [6] and in test [7] were 0.4 nM and 0.22 nM, respectively. Moreover, the kon was determined as 160000 M⁻¹ s⁻¹ in test [6] and 260000 M⁻¹ s⁻¹ in test [7].

B9: ABTx315 VHH-Fc (Fc fusion)
chain: B8 VHH
notes: as for B1
Take B9: the response in the test with huCD5-BTN is 0.498 Response Units.

B10: ABTx316 VHH-Fc (Fc fusion)
chain: QVQLVESGGGLVQAGGSLRLSCAASGGTVSSYAMGWFRQAPGKEREFVAVISWSGGRTYYADSVKGRFTISRDNAKNTVNLQMNSLKPEDTAVYYCAADPWTSDSDYERLTMYDYWGQGTQVTVSS
notes: as for B1
In the test with huCD5-BTN, B10 showed a response of 0.394 Response Units.

B11: ABTx321 VHH-Fc (Fc fusion)
chain: QLQLVESGGGLVQPGESLRLSCVVSGDIFSFVGWGWYRQAPGKQREVVAQISTGGLTNYADSVKGRFAISRDNAKRTVYLQMNSLKFEDTAVYYCNVPGHPWGQGTQVTVSS
notes: as for B1
In the test with huCD5-BTN, B11 registered a response of 0.0713 Response Units.

B12: ABTx328 VHH-Fc (Fc fusion)
chain: B11 chain with L2V, V32I, V47L, S52N, N58D, A68T, V97F, P101S
notes: as for B1
With B12, the response with huCD5-BTN is 0.153 Response Units.

B13: ABTx317 (VHH)
VHH: QVQLVESGGGLVQAGASLRLSCAASGRTTYNMGWFRHAPGKDREFVAAIDLYGRATRYANSVKGRFTISRDNAKNTVYLQMNSLKPEDTAVYYCAADTSLPLGVLTKSQRMYGAWGQGTQVTVSS
notes: VHH in periplasmic extract of the phage display clone; also called clone 280; not shown: c-myc tag of the phagemid construct (detected with anti-c-myc 9E10)
On to B13, for which the “Hu/Cyno KD” value in test [1] was 0.9. The figures for the “percent of cells showing binding” value in test [2] and in test [3] were 82.8% and 79.5%, respectively. In addition, the koff in test [4] came to 0.0131 s⁻¹; in test [5], 0.118 s⁻¹; in test [6] it was 0.00015 s⁻¹; in test [7], 0.0002 s⁻¹. Moreover, the values for the Kd in test [6] and in test [7] were 2.1 nM and 2.4 nM, respectively. Moreover, the values for the on-rate (kon) in test [6] and in test [7] were 71000 M⁻¹ s⁻¹ and 84000 M⁻¹ s⁻¹, respectively.

B14: ABTx317 VHH-Fc (Fc fusion)
chain: B13 VHH
notes: as for B1
With B14, the response in the test with huCD5-BTN was determined as 1.24 Response Units.

B15: ABTx331 (VHH)
VHH: B13 VHH with K107E, M111L
notes: VHH in periplasmic extract of the phage display clone; also called clone 225; not shown: c-myc tag of the phagemid construct (detected with anti-c-myc 9E10)
In the case of B15, the “Hu/Cyno KD” value in test [1] amounted to 0.6. The “percent of cells showing binding” value in test [2] worked out at 89.2%; in test [3] it was 71.8%. Besides, the koff in test [4] was determined as 0.0145 s⁻¹; in test [5], 0.0557 s⁻¹; in test [6], 0.00012 s⁻¹; in test [7] it was 0.00016 s⁻¹. The results for the Kd in test [6] and in test [7] were 1.3 nM and 2.2 nM, respectively. Besides, the on-rate constant (kon) in test [6] is 94000 M⁻¹ s⁻¹; in test [7], 71000 M⁻¹ s⁻¹.

B16: ABTx331 VHH-Fc (Fc fusion)
chain: B13 VHH with K107E, M111L
notes: as for B1
With B16, in the test with huCD5-BTN, the response came to 0.232 Response Units.

B17: ABTx325 VHH-Fc (Fc fusion)
chain: QVQLVESGGGLVQPGGSLRLSCAASGSDASTNNMAWYRQAPGKEREFVALIRTGGSTHVADSMKGRFTISRENAKNTVYLQMNSLKPEDTAVYYCVIWTGSPGALSDYWGQGTQVTVSS
notes: as for B1
Consider B17, for which the response with huCD5-BTN came out at 0.396 Response Units.

B18: ABTx318 VHH-Fc (Fc fusion)
chain: QVQLQESGGGSVQAGGSLRLSCAASGRAFSAYAMGWFRQAPGKEREFVAAINWNGDTALRWNGFATRYADSVKGRFTISRVIAKNTVNLQMNSLKPEDTAVYYCAADTVVSGSYYLAARAEDYEYWGQGTQVTVSS
notes: as for B1
With B18, the response with huCD5-BTN was found to be 1.15 Response Units.

B19: ABTx323 VHH-Fc (Fc fusion)
chain: QVQLQESGGGLVQAGGSLRLSCATSGITSSINVIGWYRQAPGKQRELVALVNSGGQTHYADSVKGRFTISRDNAKNTVFLQMNSLKPEDTAEYYCHGRYGIDNYWGEGTQVTVSS
notes: as for B1
In the test with huCD5-BTN, B19 gave a response of 0.317 Response Units.

B20: ABTx330 (VHH)
VHH: EVQLVESGGGLVQPGGSLRLSCAASGFPFSSSFMSWVRQAPGKGLEWVSTIYSDGSTYYADSVKGRFTISRDNAKKTAYLQMNSLKAEDTAVYYCATVTGSIRGQGTQVTVSS
notes: VHH in periplasmic extract of the phage display clone; also called clone 563; not shown: c-myc tag of the phagemid construct (detected with anti-c-myc 9E10)
As to B20, the “Hu/Cyno KD” value in test [1] was determined as 0.5. Also, the “percent of cells showing binding” value is 78.6% in test [2] and 72% in test [3]. Besides, the off-rate constant (koff) came out at 0.00231 s⁻¹ in test [4], 0.0102 s⁻¹ in test [5], 8.3e-05 s⁻¹ in test [6] and 0.00014 s⁻¹ in test [7]. Further, the Kd turned out to be 0.65 nM in test [6] and 1.4 nM in test [7]. Also, the kon turned out to be 130000 M⁻¹ s⁻¹ in test [6] and 110000 M⁻¹ s⁻¹ in test [7].

B21: ABTx330 VHH-Fc (Fc fusion)
chain: B20 VHH
notes: as for B1
B21 yielded a response with huCD5-BTN of 0.367 Response Units.
